The source of these data is PMC9132248.

Common to all, as to settings: glycan lost; control: wild type APP-SNAP
Data set [1] is described as follows: live-cell confocal colocalisation with SiR-lysosome.
The nature of data set [2]: Aβ42 ELISA of cell lysate (intracellular). Background: An ELISA detects its analyte on a solid surface through an enzyme-linked reagent.
Data set [3] can be described thus: confocal, fraction of cells with plasma-membrane APP-SNAP.
A short description of data set [4]: Airyscan colocalisation with early endosome marker EEA1.
Data set [5] in a line: confocal, plasma-membrane share of total APP-SNAP intensity per cell.
Data set [6] is described as follows: confocal imaging, size of APP-SNAP-positive vesicles.
A short description of data set [7]: Aβ42 ELISA of culture medium (secreted).
The nature of data set [8]: confocal colocalisation with Golgi marker GRASP65.

As to “amyloid precursor protein (hAPP695-SNAP): N467Q”, the localisation_or_trafficking entry in data set [1] is recorded as “decreases”; in data set [4] it was “no change”; in data set [5] it was “decreases”; in data set [6] it was “decreases”; in data set [8], “no change”. The “other: proteolytic processing” value in data set [2] and in data set [7] was “increases” each time. For the same substance, the “localisation_or_trafficking, other: percent of cells with APP-SNAP in plasma membrane” value in data set [3] is “decreases, 11.8 vs 35.3”.
Take “amyloid precursor protein (hAPP695-SNAP): N496Q”: the localisation_or_trafficking entry in data set [1] was “decreases”; in data set [4], “no change”; in data set [5] it was “decreases”; in data set [6], “decreases”; in data set [8], “no change”. Further, the “other: proteolytic processing” value in data set [2] and in data set [7] was “increases” throughout. The “localisation_or_trafficking, other: percent of cells with APP-SNAP in plasma membrane” value in data set [3] was “decreases, 9.8 vs 35.3”.
